System: Escherichia coli TOP10
Assay: shrunken log2 fold change of peptide-encoding DNA abundance (4.5 h post-induction vs induction); higher = less antimicrobial activity (less host growth inhibition)
Details: time post-induction: 4.5 h; library: site-saturation at positions 5, 18, 19, 20
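Note: peptides expressed intracellularly from a pBAD plasmid library in pooled LB shake-flask culture, induced with 0.3% L-arabinose, DNA abundance read by NGS, three biological replicates, DESeq2 with apeglm shrinkage.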

Row | Sequence | shrunken log2 fold change
1 | RRIRKRPPRLPRPRPRPMRRPRP | 0.762
2 | RRIRKRPPRLPRPRPRPMRYPRP | 0.239
3 | RRIRKRPPRLPRPRPRPMSAPRP | 0.0584
4 | RRIRKRPPRLPRPRPRPMTIPRP | -0.191
5 | RRIRKRPPRLPRPRPRPMTRPRP | 0.872
6 | RRIRKRPPRLPRPRPRPMVFPRP | -0.0194
7 | RRIRKRPPRLPRPRPRPMWDPRP | -0.0178
8 | RRIRKRPPRLPRPRPRPMWYPRP | 0.0551
9 | RRIRKRPPRLPRPRPRPNCHPRP | -0.131
10 | RRIRKRPPRLPRPRPRPNCYPRP | -0.08
11 | RRIRKRPPRLPRPRPRPNDTPRP | -0.11
12 | RRIRKRPPRLPRPRPRPNFDPRP | 0.367
13 | RRIRKRPPRLPRPRPRPNFKPRP | 0.166
14 | RRIRKRPPRLPRPRPRPNGPPRP | -0.00695
15 | RRIRKRPPRLPRPRPRPNGWPRP | 0.452
16 | RRIRKRPPRLPRPRPRPNGYPRP | 0.0664
17 | RRIRKRPPRLPRPRPRPNHHPRP | -0.182
18 | RRIRKRPPRLPRPRPRPNHLPRP | -0.0502
19 | RRIRKRPPRLPRPRPRPNHRPRP | -0.334
20 | RRIRKRPPRLPRPRPRPNIGPRP | -0.05
21 | RRIRKRPPRLPRPRPRPNLAPRP | 0.25
22 | RRIRKRPPRLPRPRPRPNLDPRP | -0.0443
23 | RRIRKRPPRLPRPRPRPNLGPRP | 0.207
24 | RRIRKRPPRLPRPRPRPNMHPRP | 0.19
25 | RRIRKRPPRLPRPRPRPNMIPRP | 0.0348

Row | Sequence | shrunken log2 fold change
26 | RRIRKRPPRLPRPRPRPNMQPRP | 0.26
27 | RRIRKRPPRLPRPRPRPNNQPRP | -0.219
28 | RRIRKRPPRLPRPRPRPNPMPRP | 0.459
29 | RRIRKRPPRLPRPRPRPNQQPRP | 0.101
30 | RRIRKRPPRLPRPRPRPNSCPRP | 0.188
31 | RRIRKRPPRLPRPRPRPNSYPRP | 0.141
32 | RRIRKRPPRLPRPRPRPNTCPRP | 0.0343
33 | RRIRKRPPRLPRPRPRPNVHPRP | 0.273
34 | RRIRKRPPRLPRPRPRPNVMPRP | -0.122
35 | RRIRKRPPRLPRPRPRPNVNPRP | -0.0135
36 | RRIRKRPPRLPRPRPRPNWTPRP | -0.129
37 | RRIRKRPPRLPRPRPRPNYQPRP | -0.0219
38 | RRIRKRPPRLPRPRPRPPAMPRP | 0.635
39 | RRIRKRPPRLPRPRPRPPCRPRP | 0.264
40 | RRIRKRPPRLPRPRPRPPDLPRP | 0.444
41 | RRIRKRPPRLPRPRPRPPEMPRP | 0.262
42 | RRIRKRPPRLPRPRPRPPFFPRP | 0.476
43 | RRIRKRPPRLPRPRPRPPFSPRP | -0.227
44 | RRIRKRPPRLPRPRPRPPFTPRP | 0.243
45 | RRIRKRPPRLPRPRPRPPGAPRP | 1.3
46 | RRIRKRPPRLPRPRPRPPGEPRP | 0.617
47 | RRIRKRPPRLPRPRPRPPGMPRP | 0.473
48 | RRIRKRPPRLPRPRPRPPGSPRP | 0.618
49 | RRIRKRPPRLPRPRPRPPIIPRP | -0.146
50 | RRIRKRPPRLPRPRPRPPKSPRP | 0.462

Row | Sequence | shrunken log2 fold change
51 | RRIRKRPPRLPRPRPRPPLDPRP | 0.809
52 | RRIRKRPPRLPRPRPRPPLVPRP | 0.598
53 | RRIRKRPPRLPRPRPRPPLYPRP | 0.948
54 | RRIRKRPPRLPRPRPRPPMSPRP | 0.328
55 | RRIRKRPPRLPRPRPRPPMYPRP | -0.0675
56 | RRIRKRPPRLPRPRPRPPNFPRP | 0.0909
57 | RRIRKRPPRLPRPRPRPPPHPRP | 0.781
58 | RRIRKRPPRLPRPRPRPPQAPRP | 0.0481
59 | RRIRKRPPRLPRPRPRPPQDPRP | 0.636
60 | RRIRKRPPRLPRPRPRPPQMPRP | 0.278
61 | RRIRKRPPRLPRPRPRPPRFPRP | 0.733
62 | RRIRKRPPRLPRPRPRPPRRPRP | 1.04
63 | RRIRKRPPRLPRPRPRPPRSPRP | 2.69
64 | RRIRKRPPRLPRPRPRPPSAPRP | 0.798
65 | RRIRKRPPRLPRPRPRPPTPPRP | 0.796
66 | RRIRKRPPRLPRPRPRPPTSPRP | 0.146
67 | RRIRKRPPRLPRPRPRPPTTPRP | 0.452
68 | RRIRKRPPRLPRPRPRPPVEPRP | 0.13
69 | RRIRKRPPRLPRPRPRPPVFPRP | -0.00134
70 | RRIRKRPPRLPRPRPRPPVHPRP | 0.273
71 | RRIRKRPPRLPRPRPRPPVRPRP | 0.265
72 | RRIRKRPPRLPRPRPRPPWCPRP | 0.401
73 | RRIRKRPPRLPRPRPRPPWQPRP | 0.236
74 | RRIRKRPPRLPRPRPRPPWWPRP | 0.777
75 | RRIRKRPPRLPRPRPRPPYFPRP | -0.101

Row | Sequence | shrunken log2 fold change
76 | RRIRKRPPRLPRPRPRPPYVPRP | 0.0388
77 | RRIRKRPPRLPRPRPRPQAHPRP | 0.266
78 | RRIRKRPPRLPRPRPRPQATPRP | 0.0984
79 | RRIRKRPPRLPRPRPRPQECPRP | -0.00957
80 | RRIRKRPPRLPRPRPRPQEDPRP | 0.0977
81 | RRIRKRPPRLPRPRPRPQEGPRP | -0.00136
82 | RRIRKRPPRLPRPRPRPQEIPRP | 0.0636
83 | RRIRKRPPRLPRPRPRPQFPPRP | -0.00782
84 | RRIRKRPPRLPRPRPRPQGCPRP | 0.421
85 | RRIRKRPPRLPRPRPRPQGIPRP | 0.114
86 | RRIRKRPPRLPRPRPRPQHEPRP | 0.198
87 | RRIRKRPPRLPRPRPRPQHIPRP | -0.243
88 | RRIRKRPPRLPRPRPRPQHMPRP | 0.0396
89 | RRIRKRPPRLPRPRPRPQHRPRP | 0.148
90 | RRIRKRPPRLPRPRPRPQIIPRP | 0.0891
91 | RRIRKRPPRLPRPRPRPQIVPRP | 0.119
92 | RRIRKRPPRLPRPRPRPQKAPRP | -0.0155
93 | RRIRKRPPRLPRPRPRPQKNPRP | 0.319
94 | RRIRKRPPRLPRPRPRPQMLPRP | -0.167
95 | RRIRKRPPRLPRPRPRPQNPPRP | 0.0671
96 | RRIRKRPPRLPRPRPRPQNRPRP | -0.169
97 | RRIRKRPPRLPRPRPRPQPGPRP | 0.406
98 | RRIRKRPPRLPRPRPRPQQVPRP | -0.0532
99 | RRIRKRPPRLPRPRPRPQSNPRP | 0.0971
100 | RRIRKRPPRLPRPRPRPQSTPRP | -0.0185

Row | Sequence | shrunken log2 fold change
101 | RRIRKRPPRLPRPRPRPQVSPRP | -0.0595
102 | RRIRKRPPRLPRPRPRPQVTPRP | -0.0535
103 | RRIRKRPPRLPRPRPRPQWTPRP | 0.0894
104 | RRIRKRPPRLPRPRPRPQYGPRP | -0.0781
105 | RRIRKRPPRLPRPRPRPQYNPRP | -0.67
106 | RRIRKRPPRLPRPRPRPRAAPRP | 1.13
107 | RRIRKRPPRLPRPRPRPRCYPRP | -0.181
108 | RRIRKRPPRLPRPRPRPRDWPRP | 0.935
109 | RRIRKRPPRLPRPRPRPRDYPRP | 0.0161
110 | RRIRKRPPRLPRPRPRPRFMPRP | 0.102
111 | RRIRKRPPRLPRPRPRPRGFPRP | 0.18
112 | RRIRKRPPRLPRPRPRPRHAPRP | 0.727
113 | RRIRKRPPRLPRPRPRPRIVPRP | 0.161
114 | RRIRKRPPRLPRPRPRPRNEPRP | 0.0551
115 | RRIRKRPPRLPRPRPRPRNIPRP | -0.116
116 | RRIRKRPPRLPRPRPRPRNYPRP | 0.374
117 | RRIRKRPPRLPRPRPRPRPHPRP | 0.762
118 | RRIRKRPPRLPRPRPRPRREPRP | 0.853
119 | RRIRKRPPRLPRPRPRPRRIPRP | 0.339
120 | RRIRKRPPRLPRPRPRPRSRPRP | 0.418
121 | RRIRKRPPRLPRPRPRPRTCPRP | -0.202
122 | RRIRKRPPRLPRPRPRPRTEPRP | 1.04
123 | RRIRKRPPRLPRPRPRPRTSPRP | 0.525
124 | RRIRKRPPRLPRPRPRPRWDPRP | 0.118
125 | RRIRKRPPRLPRPRPRPRWHPRP | 0.0132

Row | Sequence | shrunken log2 fold change
126 | RRIRKRPPRLPRPRPRPRYFPRP | 0.135
127 | RRIRKRPPRLPRPRPRPRYRPRP | -0.0384
128 | RRIRKRPPRLPRPRPRPSALPRP | 0.271
129 | RRIRKRPPRLPRPRPRPSFLPRP | 0.104
130 | RRIRKRPPRLPRPRPRPSGCPRP | -0.00526
131 | RRIRKRPPRLPRPRPRPSHNPRP | -0.351
132 | RRIRKRPPRLPRPRPRPSMKPRP | -0.212
133 | RRIRKRPPRLPRPRPRPSMMPRP | 0.677
134 | RRIRKRPPRLPRPRPRPSMQPRP | 0.293
135 | RRIRKRPPRLPRPRPRPSNDPRP | 0.257
136 | RRIRKRPPRLPRPRPRPSNGPRP | -0.00174
137 | RRIRKRPPRLPRPRPRPSNHPRP | -0.347
138 | RRIRKRPPRLPRPRPRPSNIPRP | -0.306
139 | RRIRKRPPRLPRPRPRPSNKPRP | 0.0208
140 | RRIRKRPPRLPRPRPRPSPKPRP | 0.057
141 | RRIRKRPPRLPRPRPRPSPQPRP | 0.219
142 | RRIRKRPPRLPRPRPRPSPRPRP | 1.04
143 | RRIRKRPPRLPRPRPRPSQQPRP | 0.312
144 | RRIRKRPPRLPRPRPRPSRQPRP | 0.192
145 | RRIRKRPPRLPRPRPRPSRTPRP | 0.391
146 | RRIRKRPPRLPRPRPRPSTDPRP | -0.135
147 | RRIRKRPPRLPRPRPRPSTQPRP | 0.169
148 | RRIRKRPPRLPRPRPRPSWEPRP | 0.153
149 | RRIRKRPPRLPRPRPRPTAEPRP | 0.079
150 | RRIRKRPPRLPRPRPRPTANPRP | 0.863
